According to paper PMC7946914, “easyCLIP analysis of RNA-protein interactions incorporating absolute quantification”:

Experiments:
Assay in all cases: fluorescence polarization; FP with 3' 6-FAM RNA; PCBP1 RNA diluted to 50 nM in PCBP binding buffer; buffer composition, pH and temperature not in the material
[1] = target: T1, A1CF WT (human?, UniProt Q9NQ94 1-594); details: protein: recombinant; label: 3' 6-FAM; single-stranded
T1 sequence: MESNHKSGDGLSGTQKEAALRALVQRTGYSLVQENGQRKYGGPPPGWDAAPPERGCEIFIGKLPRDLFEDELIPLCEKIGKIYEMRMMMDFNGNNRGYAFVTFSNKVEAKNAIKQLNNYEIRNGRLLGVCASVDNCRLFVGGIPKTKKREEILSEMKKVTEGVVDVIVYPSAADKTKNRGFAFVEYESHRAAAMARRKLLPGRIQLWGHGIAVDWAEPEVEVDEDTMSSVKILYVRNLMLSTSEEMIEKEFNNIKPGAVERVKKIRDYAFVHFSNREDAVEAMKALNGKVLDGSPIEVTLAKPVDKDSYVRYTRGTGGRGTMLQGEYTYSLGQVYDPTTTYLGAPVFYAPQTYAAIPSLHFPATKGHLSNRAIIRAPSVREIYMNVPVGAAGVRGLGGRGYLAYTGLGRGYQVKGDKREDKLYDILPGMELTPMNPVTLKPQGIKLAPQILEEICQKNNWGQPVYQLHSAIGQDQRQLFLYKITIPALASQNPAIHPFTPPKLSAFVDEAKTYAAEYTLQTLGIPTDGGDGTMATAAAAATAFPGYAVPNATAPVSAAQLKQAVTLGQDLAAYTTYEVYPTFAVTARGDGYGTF

[2] = target: T2, A1CF E34K (human?, UniProt Q9NQ94 1-594, E34K); details: protein: recombinant; label: 3' 6-FAM; single-stranded
T2 sequence: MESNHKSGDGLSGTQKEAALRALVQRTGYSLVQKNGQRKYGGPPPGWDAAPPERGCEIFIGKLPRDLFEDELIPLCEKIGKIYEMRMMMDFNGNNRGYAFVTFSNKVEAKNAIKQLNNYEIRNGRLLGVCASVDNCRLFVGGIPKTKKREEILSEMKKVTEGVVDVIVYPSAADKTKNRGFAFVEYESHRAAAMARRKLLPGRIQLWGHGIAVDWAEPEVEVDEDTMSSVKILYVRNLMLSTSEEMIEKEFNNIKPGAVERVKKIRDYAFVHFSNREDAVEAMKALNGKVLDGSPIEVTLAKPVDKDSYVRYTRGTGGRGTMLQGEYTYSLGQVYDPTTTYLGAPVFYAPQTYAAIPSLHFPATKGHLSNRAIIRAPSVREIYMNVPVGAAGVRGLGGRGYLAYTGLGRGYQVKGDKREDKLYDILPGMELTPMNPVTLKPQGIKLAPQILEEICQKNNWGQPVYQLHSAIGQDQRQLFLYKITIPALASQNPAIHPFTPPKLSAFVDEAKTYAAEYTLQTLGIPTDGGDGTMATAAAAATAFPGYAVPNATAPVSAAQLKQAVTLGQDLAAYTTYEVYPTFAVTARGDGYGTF

[3] = target: T3, KHDRBS2 WT (UniProt Q5VWX1 1-349); details: protein: recombinant; chain copies: 2; label: 3' 6-FAM; single-stranded
T3 sequence: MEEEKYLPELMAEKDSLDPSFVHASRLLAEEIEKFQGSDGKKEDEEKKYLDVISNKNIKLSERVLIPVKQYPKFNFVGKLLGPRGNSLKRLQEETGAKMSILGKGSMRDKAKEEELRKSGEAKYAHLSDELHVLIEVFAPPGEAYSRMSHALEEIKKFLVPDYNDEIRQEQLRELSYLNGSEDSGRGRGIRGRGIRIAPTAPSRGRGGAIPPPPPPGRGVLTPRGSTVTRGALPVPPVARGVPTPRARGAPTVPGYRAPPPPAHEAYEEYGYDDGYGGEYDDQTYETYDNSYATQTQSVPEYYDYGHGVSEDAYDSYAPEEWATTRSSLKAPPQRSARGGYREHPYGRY

[4] = target: T4, KHDRBS2 R168C (UniProt Q5VWX1 1-349, R168C); details: protein: recombinant; chain copies: 2; label: 3' 6-FAM; single-stranded
T4 sequence: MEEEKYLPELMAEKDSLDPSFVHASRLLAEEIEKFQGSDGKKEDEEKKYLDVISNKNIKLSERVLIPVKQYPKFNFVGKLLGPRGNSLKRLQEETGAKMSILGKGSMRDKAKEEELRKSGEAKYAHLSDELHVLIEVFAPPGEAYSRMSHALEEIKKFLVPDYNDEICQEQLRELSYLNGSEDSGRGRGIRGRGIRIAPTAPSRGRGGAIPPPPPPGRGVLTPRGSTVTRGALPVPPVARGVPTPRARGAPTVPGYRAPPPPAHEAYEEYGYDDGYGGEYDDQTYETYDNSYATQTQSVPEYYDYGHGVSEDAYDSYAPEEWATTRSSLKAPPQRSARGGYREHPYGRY

## AUUAAAUUAAAUUU (ssRNA) [AU-rich RNA (A1CF and KHDRBS2)]
[1]
  binding signal: 1 fold (reference)
[2]
  binding signal: ~2 fold affinity vs WT
[3]
  binding signal: 1 fold (reference)
[4]
  binding signal: ~2 fold affinity vs WT
